Reference: PMC11363321
pKd: −log10 of the molar value.

Tested on: Deoxymab-3 (DX3), humanized 3E10 antinuclear IgG1 (humanized (3E10 CDRs from MRL/lpr mouse on human IgG1 framework))
Test: SPR
Details: 1:1 kinetic fit, SPR Biacore T200, CM5 chip with neutravidin, biotinylated ssDNA (0.025 uM) immobilized, DX3 in PBS pH 7.4, contact 120 s, dissociation 400 s, temperature not …

30-mer single-stranded DNA oligonucleotide
pKd (experiment 1, DX3 titrated from 500 nM): 6.95 | pKd (experiment 2 (replicate)): 6.95
